Measurements: patent US9914781 (GlaxoSmithKline, dated 2018)
Blank lines part the entries; values can stand above or below the binder they belong to.

Legend:
[1] = molecular target: T1, recombinant human TrkB extracellular domain (FLAG tag-GSA-C32-H430-His5) (human, UniProt Q16620 31-430); assay: SPR, human TrkB-ECD
T1 construct: Single alanine mutants were made in this ECD; also called TrkB-ECD; TrkB ECD; not shown: FLAG tag

[2] = molecular target: T2, human full-length TrkB receptor (human, UniProt Q16620 32-822); assay: cell-based or functional assay
T2 sequence (Q16620 32-822 limits assumed): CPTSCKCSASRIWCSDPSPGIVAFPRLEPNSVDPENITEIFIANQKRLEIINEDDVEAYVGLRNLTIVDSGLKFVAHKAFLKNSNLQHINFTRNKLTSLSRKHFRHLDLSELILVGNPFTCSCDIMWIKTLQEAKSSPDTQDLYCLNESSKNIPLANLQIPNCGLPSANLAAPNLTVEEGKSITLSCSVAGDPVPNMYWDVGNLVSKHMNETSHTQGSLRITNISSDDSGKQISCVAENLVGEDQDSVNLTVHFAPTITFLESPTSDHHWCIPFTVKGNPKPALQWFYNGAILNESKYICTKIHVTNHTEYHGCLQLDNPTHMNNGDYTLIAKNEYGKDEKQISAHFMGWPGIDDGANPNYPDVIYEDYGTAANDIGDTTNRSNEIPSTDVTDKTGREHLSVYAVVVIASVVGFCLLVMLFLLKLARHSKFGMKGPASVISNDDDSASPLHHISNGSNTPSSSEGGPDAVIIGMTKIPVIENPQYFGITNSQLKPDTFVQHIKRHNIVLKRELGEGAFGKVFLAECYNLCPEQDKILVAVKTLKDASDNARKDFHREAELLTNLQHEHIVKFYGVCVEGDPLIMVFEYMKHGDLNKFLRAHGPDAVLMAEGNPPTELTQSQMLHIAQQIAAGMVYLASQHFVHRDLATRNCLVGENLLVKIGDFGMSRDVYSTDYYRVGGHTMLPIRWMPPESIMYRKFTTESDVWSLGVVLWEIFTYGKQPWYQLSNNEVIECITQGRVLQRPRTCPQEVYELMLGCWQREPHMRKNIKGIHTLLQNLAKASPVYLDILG

[3] = molecular target: T2, human full-length TrkB receptor; assay: cell-based or functional assay; remark: listed apart in the source
TrkB_H284-H430 ECD-6H = molecular target: T3, TrkB_H284-H430 ECD-6H (human, UniProt Q16620 284-430); assay: SEC-MALS
T3 construct: the SEC-MALS construct is named only by its residue limits and tag; also called soluble truncated form of the ECD of TrkB
T3 sequence (Q16620 other isoform, or with tags, fused parts or gaps limits assumed): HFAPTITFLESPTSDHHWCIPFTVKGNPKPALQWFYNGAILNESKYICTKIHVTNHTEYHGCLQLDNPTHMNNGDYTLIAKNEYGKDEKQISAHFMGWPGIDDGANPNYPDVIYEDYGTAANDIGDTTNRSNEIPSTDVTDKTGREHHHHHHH

human FcRn = human FcRn (human, UniProt P55899 24-297; P61769 21-119, limits assumed); assay: SPR
[4] = molecular target: T4, recombinant cynomolgus TrkB-ECD (cynomolgus, UniProt A0A2K5VS06 32-430); assay: SPR, 1:1 binding mode, recombinant cynomolgus TrkB-ECD
T4 construct: extracellular domain

[5] = molecular target: T1, recombinant human TrkB extracellular …; assay: SPR, 1:1 binding mode, recombinant human TrkB-ECD
[6] = molecular target: T5, pan-neurotrophin receptor p75^NTR (UniProt P08138 29-427, limits assumed); assay: cell based binding assay
T5 construct: whole, on cells
T5 sequence (looked up): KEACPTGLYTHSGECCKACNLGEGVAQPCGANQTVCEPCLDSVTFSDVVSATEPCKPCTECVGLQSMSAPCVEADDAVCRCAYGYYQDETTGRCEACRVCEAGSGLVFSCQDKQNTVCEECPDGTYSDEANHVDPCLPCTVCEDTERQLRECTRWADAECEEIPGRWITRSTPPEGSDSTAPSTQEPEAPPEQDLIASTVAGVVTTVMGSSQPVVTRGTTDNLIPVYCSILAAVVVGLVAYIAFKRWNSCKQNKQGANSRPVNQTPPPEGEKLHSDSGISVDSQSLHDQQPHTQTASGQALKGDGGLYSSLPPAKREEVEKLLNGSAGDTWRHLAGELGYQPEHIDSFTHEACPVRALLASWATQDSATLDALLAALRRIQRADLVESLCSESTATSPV

[7] = molecular target: T2, human full-length TrkB receptor; assay: cell-based or functional assay; remark: listed apart in the source
[8] = molecular target: TrkB D1-D3 domain variant (C32-L196) (human, UniProt Q16620 32-196); assay: SPR with TrkB domain deletion variants
Sequence of TrkB D1-D3 domain variant (C32-L196) (Q16620 32-196 limits assumed, stated change not applied): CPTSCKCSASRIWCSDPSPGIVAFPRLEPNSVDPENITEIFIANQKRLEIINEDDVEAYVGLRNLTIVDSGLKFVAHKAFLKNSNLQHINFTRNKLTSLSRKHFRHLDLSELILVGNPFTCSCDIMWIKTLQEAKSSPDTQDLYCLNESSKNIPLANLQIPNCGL

rat TrkB receptor = molecular target: T6, rat TrkB receptor (rat, UniProt Q63604 32-821); assay: recombinant TrkB in a heterologous cell line, primary cells or human iPSC derived cells
T6 construct: whole, on cells; also called rodent TrkB
T6 sequence (Q63604 32-821): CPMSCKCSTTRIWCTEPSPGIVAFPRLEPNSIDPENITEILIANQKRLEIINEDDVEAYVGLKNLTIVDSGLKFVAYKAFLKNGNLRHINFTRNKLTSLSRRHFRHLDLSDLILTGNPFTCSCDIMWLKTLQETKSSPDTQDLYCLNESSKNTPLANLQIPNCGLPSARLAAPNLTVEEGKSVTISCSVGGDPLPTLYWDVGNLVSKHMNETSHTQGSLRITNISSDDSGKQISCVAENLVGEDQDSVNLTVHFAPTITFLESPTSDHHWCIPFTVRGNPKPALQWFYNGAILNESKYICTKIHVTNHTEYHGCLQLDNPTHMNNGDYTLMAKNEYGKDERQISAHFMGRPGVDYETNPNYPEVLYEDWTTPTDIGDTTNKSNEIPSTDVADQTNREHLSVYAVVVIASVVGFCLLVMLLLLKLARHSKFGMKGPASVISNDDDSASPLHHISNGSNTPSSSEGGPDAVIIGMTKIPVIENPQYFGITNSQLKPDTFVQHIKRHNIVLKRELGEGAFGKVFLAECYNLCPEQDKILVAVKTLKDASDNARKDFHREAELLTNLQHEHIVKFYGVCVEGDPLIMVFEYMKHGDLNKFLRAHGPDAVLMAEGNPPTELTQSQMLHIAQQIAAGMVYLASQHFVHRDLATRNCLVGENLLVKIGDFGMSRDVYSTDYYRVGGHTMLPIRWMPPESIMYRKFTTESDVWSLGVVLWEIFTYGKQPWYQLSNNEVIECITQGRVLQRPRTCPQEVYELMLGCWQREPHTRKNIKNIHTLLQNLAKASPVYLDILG

murine TrkB receptor = molecular target: T7, murine TrkB receptor (murine, UniProt P15209 32-821); assay: as above
T7 construct: whole, on cells; also called mouse TrkB; rodent TrkB
T7 sequence (P15209 32-821): as the sequence (Q63604 32-821) above, with M3T, T9S, T10A, I32V, K63R, G84S, T153M, I185L, T394S, N770S counted along it

T1 sequence (Q16620 other isoform, or with tags, fused parts or gaps): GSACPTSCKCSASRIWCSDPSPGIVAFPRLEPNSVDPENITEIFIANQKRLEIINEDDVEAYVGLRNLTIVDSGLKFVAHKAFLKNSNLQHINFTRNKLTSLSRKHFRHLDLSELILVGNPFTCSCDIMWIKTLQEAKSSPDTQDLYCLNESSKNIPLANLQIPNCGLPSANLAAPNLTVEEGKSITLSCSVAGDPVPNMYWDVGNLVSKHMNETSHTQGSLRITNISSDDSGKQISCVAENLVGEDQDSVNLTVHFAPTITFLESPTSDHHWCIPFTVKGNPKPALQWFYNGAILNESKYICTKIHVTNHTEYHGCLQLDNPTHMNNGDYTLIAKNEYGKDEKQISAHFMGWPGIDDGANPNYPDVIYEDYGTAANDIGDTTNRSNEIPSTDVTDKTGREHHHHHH

Kd [1]: ~9.8 nM
koff [1]: 0.000676 s⁻¹
kon [1]: 69000 M⁻¹ s⁻¹
Activation of TrkB (pTrkB), EC50 [2]: ~15 nM
Potentiation of BDNF-induced agonism of TrkB (pTrkB, BDNF alone = 100%) [2]: ~120%
neurite outgrowth, EC50 [3]: 1.58 nM
B1: 8E5 (murine TrkB agonist monoclonal antibody) (antibody, mouse IgG1, kappa, V domains shown)
VH: EVQLVESGGDLVKPGGSLKLSCAASGFTFSTYGMSWVRQTPDKGLEWVATVSTGGTYTYYPDSVKGRFTISRDNAKNTLYLQMSSLKSEDTAMYYCARGGYSFAYWGQGTLVTVSA
VL: ENVLTQSPAIMSASPGEKVTMTCRASSSVSSSYLHWYQQKSGVSPKLWIYSTSNLASGVPARFSGSGSGTSYSLTISSVEAEDAATYYCQQYSGYPLTFGAGTKLELKR
notes: Full length murine chains
cell survival, EC50 [3]: 0.09 nM

binding result (TrkB_H284-H430 ECD-6H): binds
B3: Brain Derived Neurotrophic Factor (BDNF) (ligand, UniProt P23560 129-247, looked up)
chain: HSDPARRGELSVCDSISEWVTAADKKTAVDMSGGTVTVLEKVPVSKGQLKQYFYETKCNPMGYTKEGCRGIDKRHWNSQCRTTQSYVRALTMDSKKRIGWRFIRIDTSCVCTLTIKRGR
notes: also called BNDF

binding result (human FcRn): binds
Kd [4]: ~60 nM
Activation of TrkB (pTrkB), EC50, CHO-K1 cells [3]: 0.65 nM
neurite outgrowth, rat PC12 cells stably expressing human full length TrkB, EC50 [3]: 0.07 nM
Kd [5]: ~55 nM
B4: Humanised 1G11 (H7, Lo1) (antibody, human IgG1, kappa)
heavy: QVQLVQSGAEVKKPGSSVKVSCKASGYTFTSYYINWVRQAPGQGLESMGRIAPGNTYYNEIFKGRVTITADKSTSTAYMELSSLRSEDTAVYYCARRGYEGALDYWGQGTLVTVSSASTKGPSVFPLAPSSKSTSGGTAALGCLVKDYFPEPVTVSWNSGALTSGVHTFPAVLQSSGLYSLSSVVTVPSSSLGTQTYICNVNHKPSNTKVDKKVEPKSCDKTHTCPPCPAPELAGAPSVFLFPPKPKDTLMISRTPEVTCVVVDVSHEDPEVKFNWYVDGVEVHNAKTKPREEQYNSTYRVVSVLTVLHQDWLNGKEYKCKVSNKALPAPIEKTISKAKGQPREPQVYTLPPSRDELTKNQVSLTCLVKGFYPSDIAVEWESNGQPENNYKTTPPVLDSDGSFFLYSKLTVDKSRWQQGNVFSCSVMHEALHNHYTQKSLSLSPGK
light: EIVLTQSPATLSLSPGERATLSCRASQRISNNLHWYQQKPGQAPRLLIKYVSQSISGIPARFSGSGSGTDFTLTISSLEPEDFAVYYCQQSNSWPLTFGQGTKLEIKRTVAAPSVFIFPPSDEQLKSGTASVVCLLNNFYPREAKVQWKVDNALQSGNSQESVTEQDSKDSTYSLSSTLTLSKADYEKHKVYACEVTHQGLSSPVTKSFNRGEC
notes: Straight graft with serine at Kabat position 47 of VH; human IgG1 Fc with L235A and G237A (EU), Fc-disabled
cell survival, rat PC12 cells stably expressing human full length TrkB, EC50 [3]: 0.007 nM

binding result [6]: no binding
Kd [1]: ~42 nM
koff [1]: 0.00239 s⁻¹
kon [1]: 56600 M⁻¹ s⁻¹
EC50 (read off the curve), potentiation of pTrkB in the presence of 10 nM BDNF [7]: ~10 nM
binding result [8]: no binding
Activation of TrkB (pTrkB, Y515), EC50, CHO-K1 cells [2]: 3.1 nM
Potentiation of BDNF-induced agonism of TrkB (pTrkB, BDNF alone = 100%) [2]: ~130%
binding result (rat TrkB receptor): binds
binding result (murine TrkB receptor): binds
neurite outgrowth, rat PC12 cells stably expressing human full length TrkB, EC50 [3]: 0.19 nM
B5: 1G11 (murine TrkB agonist monoclonal antibody) (antibody, V domains shown)
VH: QVQLQQSGDDLVKPGASVKLSCKASGYTFTSYYINWIKQRPGQGLECIGRIAPGNTYYNEIFKGKAILTVDTSSSTAYIQLSSLSSEDSGVYFCARRGYEGALDYWGQGTSVTVSS
VL: DIVLTQSPATLSVTPGDSVSLSCRASQRISNNLHWYQQKSHESPRLLIKYVSQSISGIPSRFSGSGSGTDFTLSINSVETEDFGMYFCQQSNSWPLTFGAGTKLELKR
notes: Full length murine heavy and light chains; from a hybridoma of Balb/c mice immunised with human TrkB-ECD; Not Fc-disabled; also called 1G11 mAb; murine 1G11
cell survival, rat PC12 cells stably expressing human full length TrkB, EC50 [3]: 0.025 nM

The remaining lines, values behind:

B2: 5D11 (murine TrkB agonist monoclonal antibody) (antibody, mouse IgG1, kappa, V domains shown)
VH: QVHLQQSGAELVRPGTSVKVSCKASGYAFTNYLIEWIKQRPGQGLEWIGVINPGSGGTNYNDKFKGKAILTADKSSTTAYMQLSSLTSDDSAVYFCARGGNDYGDYWGQGTSVTVSS
VL: DIVLTQSPASLAVSLGQRATISCRASQSVSTSFYSYMHWYQQKPGQPPKVFIKYASNLQSGVPARFSGSGSGTDFTLNIHPVEEDDTATYYCQHSWEIPWTFGGGTKLEIKR
notes: Full length murine chains; same as 3E10; also called 3E10; 5D11 (=3E10)
Kd [1]: ~3.3 nM
koff [1]: 0.000145 s⁻¹
kon [1]: 44100 M⁻¹ s⁻¹
Activation of TrkB (pTrkB), EC50 [2]: 1 to 2 nM

B6: 3A3 (murine TrkB agonist monoclonal antibody) (antibody, mouse IgG1, kappa, V domains shown)
VH: QVQLQQSGAELAKPGASVKMSCKASGYTFSSYWMHWVKQRPGQGLEWIGYINPSTGYTDYNQKFKDKATLTADKSSNTAYMQLSSLTSDDSAVYYCARSRAARYWGQGTTLTVSS
VL: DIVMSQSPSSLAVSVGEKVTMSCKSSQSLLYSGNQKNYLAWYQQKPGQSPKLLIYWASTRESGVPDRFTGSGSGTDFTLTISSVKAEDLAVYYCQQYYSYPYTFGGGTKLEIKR
notes: Full length murine chains; also called 3B3; 3A3 (=3B3)
Kd [1]: ~7.5 nM
koff [1]: 0.000897 s⁻¹
kon [1]: 120000 M⁻¹ s⁻¹
EC50 (read off the curve), potentiation of pTrkB in the presence of 10 nM BDNF [7]: ~0.7 nM
Activation of TrkB (pTrkB), EC50 [2]: 0.2 to 0.6 nM
Potentiation of BDNF-induced agonism of TrkB (pTrkB, BDNF alone = 100%) [2]: ~160%
cell survival, EC50 [3]: 0.006 nM
